Measurements as given in patent publication US20170122849.

Test system: (KW)2KKA-eGFP-AKK(WK)2 (DNA-staining eGFP) (synthetic construct (eGFP from Aequorea victoria?))
Assay: EMSA
Conditions: about; apparent Kd; TE/glycerol, 0.5x TBE 4-20% gel, EtBr stain

CTACTAGCACAATCGACTGTACGGACCGATCGAGTCACTAGCAGTCTAGCAA (double strand) [52-mer random sequence dsDNA]
Kd: 14.7 µM
